Measured values from doi:10.1101/2025.08.17.670746, “Post-transcriptional regulation of meiotic transcripts by the RNA binding protein CDM1 is associated with cytoplasmic condensate assemblies” (bioRxiv, 2025).

Biological target: the molecule itself
Test: pull-down; equimolar His6-MBP-CDM1-GFP and TEV-cleaved CDM1-GFP mixed in 20 mM HEPES pH 7.4, 150 mM KCl, 1 mM DTT, room temperature, 2 h; precipitated with anti-His antibody and Protein G beads; blot with anti-GFP

B1: CALLOSE … MICROSPORES1 (CDM1) fused to G3GFP, made in E. coli (His6-MBP-CDM1-GFP and its TEV-cleaved form CDM1-GFP) (natural protein, Arabidopsis thaliana, UniProt Q9C9F5 1-308, looked up)
chain: MENKIAPFSYSGSSAGNSSSGGVVSSSLYSDQLYKSTRNIMQQRQDMVNREALCYTRLHEASLEAEALRLENTELRSMNLRLKNELNSLIRSSIQNRFDHRSPLRMLSNLSIGGNDADEVENQNRTVNRDDVNDKSPTSVMENEDLNRSSLPKSISVRSNGYSKASQGGGGAAAQSGKPRGTVTKPGTCGQVSTTQKVYVRGGGKKEDQEEEIEVEVYNQGMTKTELCNKWQETGTCPYGDHCQFAHGIKELRPVIRHPRYKTEVCRMVLAGDNCPYGHRCHFRHSLSEQEKLVAAGFKPKSSLKLIT
notes: CDM1 (CALLOSE … MICROSPORE1, C3H15), Arabidopsis thaliana, At1G68200; Self-association test with two differently tagged copies: the bait copy kept His6-MBP (His6-MBP-CDM1-GFP); Both copies carry the C-terminal G3GFP, by which they were detected; also called C3H15; His-MBP-CDM1-G3GFP; source: E. coli BL21-Rosetta, purified (His Mag Sepharose Ni beads, dialysed); not shown: His6, N-terminal, kept; …
B1: binds.
